IntAct's records for PubMed 10202051

B1: Actin nucleation-promoting factor WAS (Homo sapiens), P42768 (parent)
chain: MSGGPMGGRPGGRGAPAVQQNIPSTLLQDHENQRLFEMLGRKCLTLATAVVQLYLALPPGAEHWTKEHCGAVCFVKDNPQKSYFIRLYGLQAGRLLWEQELYSQLVYSTPTPFFHTFAGDDCQAGLNFADEDEAQAFRALVQEKIQKRNQRQSGDRRQLPPPPTPANEERRGGLPPLPLHPGGDQGGPPVGPLSLGLATVDIQNPDITSSRYRGLPAPGPSPADKKRSGKKKISKADIGAPSGFKHVSHVGWDPQNGFDVNNLDPDLRSLFSRAGISEAQLTDAETSKLIYDFIEDQGGLEAVRQEMRRQEPLPPPPPPSRGGNQLPRPPIVGGNKGRSGPLPPVPLGIAPPPPTPRGPPPPGRGGPPPPPPPATGRSGPLPPPPPGAGGPPMPPPPPPPPPPPSSGNGPAPPPLPPALVPAGGLAPGGGRGALLDQIRQGIQLNKTPGAPESSALQPPPQSSEGLVGALMHVMQKRSRAIHSSDEGEDQAGDEDEDDEWDD

Variants of: B1
Settings: with wipf1_human WIPF1, O43516
Chain of wipf1_human WIPF1, O43516 (O43516 whole entry): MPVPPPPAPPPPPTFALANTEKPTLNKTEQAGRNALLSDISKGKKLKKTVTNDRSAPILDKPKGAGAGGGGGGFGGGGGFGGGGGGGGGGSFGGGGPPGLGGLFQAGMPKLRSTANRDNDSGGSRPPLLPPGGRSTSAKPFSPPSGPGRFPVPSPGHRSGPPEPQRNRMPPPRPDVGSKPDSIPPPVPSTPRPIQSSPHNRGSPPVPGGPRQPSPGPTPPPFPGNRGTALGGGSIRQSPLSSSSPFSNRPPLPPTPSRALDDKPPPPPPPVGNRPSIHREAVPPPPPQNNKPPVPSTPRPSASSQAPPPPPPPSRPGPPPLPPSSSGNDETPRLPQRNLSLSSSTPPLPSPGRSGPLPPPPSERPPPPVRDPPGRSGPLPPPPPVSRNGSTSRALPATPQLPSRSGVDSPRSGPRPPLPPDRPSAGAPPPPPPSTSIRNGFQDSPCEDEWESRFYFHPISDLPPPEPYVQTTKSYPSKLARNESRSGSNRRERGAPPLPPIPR

effect of a mutation on the interaction | Variant
decreasing interaction | MSGGPMGGRPGGRGAPAVQQNIPSTLLQDHENQRLFEMLGRKCLTLATAVVQLYLALPPGAEHWTKEHCGAVCFVKDNPQKSYFIRLYGLQAGRLLWEQELYSQLVCSTPTPFFHTFAGDDCQAGLNFADEDEAQAFRALVQEKIQKRNQRQSGDRRQLPPPPTPANEERRGGLPPLPLHPGGDQGGPPVGPLSLGLATVDIQNPDITSSRYRGLPAPGPSPADKKRSGKKKISKADIGAPSGFKHVSHVGWDPQNGFDVNNLDPDLRSLFSRAGISEAQLTDAETSKLIYDFIEDQGGLEAVRQEMRRQEPLPPPPPPSRGGNQLPRPPIVGGNKGRSGPLPPVPLGIAPPPPTPRGPPPPGRGGPPPPPPPATGRSGPLPPPPPGAGGPPMPPPPPPPPPPPSSGNGPAPPPLPPALVPAGGLAPGGGRGALLDQIRQGIQLNKTPGAPESSALQPPPQSSEGLVGALMHVMQKRSRAIHSSDEGEDQAGDEDEDDEWDD [Y107C]
decreasing interaction | MSGGPMGGRPGGRGAPAVQQNIPSTLLQDHENQRLFEMLGRKCLTLATAVVQLYLALPPGAEHWTKEHCGAVCFVKDNPQKSYFIRLYGLQAGRLLWEQELYSQLVYSTPTPFFHTFAGDDCQAGLNFADEDETQAFRALVQEKIQKRNQRQSGDRRQLPPPPTPANEERRGGLPPLPLHPGGDQGGPPVGPLSLGLATVDIQNPDITSSRYRGLPAPGPSPADKKRSGKKKISKADIGAPSGFKHVSHVGWDPQNGFDVNNLDPDLRSLFSRAGISEAQLTDAETSKLIYDFIEDQGGLEAVRQEMRRQEPLPPPPPPSRGGNQLPRPPIVGGNKGRSGPLPPVPLGIAPPPPTPRGPPPPGRGGPPPPPPPATGRSGPLPPPPPGAGGPPMPPPPPPPPPPPSSGNGPAPPPLPPALVPAGGLAPGGGRGALLDQIRQGIQLNKTPGAPESSALQPPPQSSEGLVGALMHVMQKRSRAIHSSDEGEDQAGDEDEDDEWDD [A134T]
decreasing interaction | MSGGPMGGRPGGRGAPAVQQNIPSTLLQDHENQRLFEMLGRKCLTLATAVVQLYLALPPGAEHWTKEHCGAVCFVKDNPQKSYFIHLYGLQAGRLLWEQELYSQLVYSTPTPFFHTFAGDDCQAGLNFADEDEAQAFRALVQEKIQKRNQRQSGDRRQLPPPPTPANEERRGGLPPLPLHPGGDQGGPPVGPLSLGLATVDIQNPDITSSRYRGLPAPGPSPADKKRSGKKKISKADIGAPSGFKHVSHVGWDPQNGFDVNNLDPDLRSLFSRAGISEAQLTDAETSKLIYDFIEDQGGLEAVRQEMRRQEPLPPPPPPSRGGNQLPRPPIVGGNKGRSGPLPPVPLGIAPPPPTPRGPPPPGRGGPPPPPPPATGRSGPLPPPPPGAGGPPMPPPPPPPPPPPSSGNGPAPPPLPPALVPAGGLAPGGGRGALLDQIRQGIQLNKTPGAPESSALQPPPQSSEGLVGALMHVMQKRSRAIHSSDEGEDQAGDEDEDDEWDD [R86H]
